Among the data in paper PMC10143413, “Proteomic Profiling of Mouse Brain Pyruvate Kinase Binding Proteins: A Hint for Moonlighting Functions of PKM1?” (International Journal of Molecular Sciences, 2023) are Kd, koff and kon values, retold here.

The term Kd denotes a measure of binding affinity in units of concentration. Low values mean tighter binding, high ones weaker binding. As usually defined, the koff is the rate constant with which the complex falls apart. The term kon denotes the rate constant with which the complex forms. High values mean fast association, low ones slow association.

For this assay, the target named is T1, Pyruvate kinase PKM1, purified from rabbit skeletal muscle (rabbit, UniProt P11974-1 1-531).
T1 construct: Pyruvate kinase PKM, isoform M1, rabbit skeletal muscle; called full-length PKM1; amine-coupled to a CM5 chip or used as analyte in SPR; also called full-length PKM1; PK1; source: isolated from skeletal muscles of adult rabbits, electrophoretically homogeneous
Put plainly: SPR; Biacore T200, 25 °C; GAPDH, LDH or aldolase A amine-coupled to a CM5 chip, PKM1 as analyte in 0.05 M potassium phosphate buffer pH 7.4, 10 µL/min for 5 min; global fit to the 1:1 binding model. The following applies: both partners purified.

T1 sequence (P11974 whole entry, canonical isoform): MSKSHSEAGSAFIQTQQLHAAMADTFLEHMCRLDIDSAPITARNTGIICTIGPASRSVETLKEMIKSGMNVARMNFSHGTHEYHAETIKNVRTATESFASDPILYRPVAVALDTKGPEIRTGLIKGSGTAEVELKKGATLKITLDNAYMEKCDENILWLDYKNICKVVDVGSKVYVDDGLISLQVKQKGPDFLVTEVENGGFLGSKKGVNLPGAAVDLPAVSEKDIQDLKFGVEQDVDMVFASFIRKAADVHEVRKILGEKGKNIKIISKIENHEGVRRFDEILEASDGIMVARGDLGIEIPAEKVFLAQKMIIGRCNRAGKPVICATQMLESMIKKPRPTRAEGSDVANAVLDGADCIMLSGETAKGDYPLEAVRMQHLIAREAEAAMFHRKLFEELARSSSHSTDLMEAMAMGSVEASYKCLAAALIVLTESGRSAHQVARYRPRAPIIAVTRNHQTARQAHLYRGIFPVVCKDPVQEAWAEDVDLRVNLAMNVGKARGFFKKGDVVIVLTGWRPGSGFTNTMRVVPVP

B1: Glyceraldehyde 3-phosphate dehydrogenase, purified from rabbit skeletal muscle (enzyme)
chain: not shown
notes: Glyceraldehyde-3-phosphate dehydrogenase, rabbit skeletal muscle; also called GAPDH; GAPD; source: isolated from skeletal muscles of adult rabbits, electrophoretically homogeneous
With B1, the Kd is 1.06 µM, the koff came to 0.00162 s⁻¹ and the kon was 1530 M⁻¹ s⁻¹.
